Measurements published in PMC11825094, “Tonic ubiquitination of the central body weight regulator melanocortin receptor 4 (MC4R) promotes its constitutive exit from cilia” (PLOS Biology, 2025).

Biological target: melanocortin receptor 4 (MC4R)-3xmNeonGreen, human (human, UniProt P32245 1-332, a fraction carries K63-linked polyubiquitin chains (smear above the main band))
Assay: cell-based or functional assay

Sequence of melanocortin receptor 4 (MC4R)-3xmNeonGreen, human (P32245 whole entry): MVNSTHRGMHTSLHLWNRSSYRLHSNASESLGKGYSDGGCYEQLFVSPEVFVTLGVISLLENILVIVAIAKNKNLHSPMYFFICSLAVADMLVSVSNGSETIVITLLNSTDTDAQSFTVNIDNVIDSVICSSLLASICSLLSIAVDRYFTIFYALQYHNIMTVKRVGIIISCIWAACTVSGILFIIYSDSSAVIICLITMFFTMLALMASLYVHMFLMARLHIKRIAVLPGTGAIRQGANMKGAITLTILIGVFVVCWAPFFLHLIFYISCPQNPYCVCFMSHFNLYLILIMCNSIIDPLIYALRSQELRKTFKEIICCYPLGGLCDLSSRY

ciliary fluorescence of MRAP2^3FLAG in IMCD3-[MRAP2^3FLAG/MC4R^3NG] cells treated with 5 nM HS014, time course, against vehicle: 11 fold
ciliary fluorescence of MRAP2^3FLAG in IMCD3-[MRAP2^3FLAG/MC4R^3NG] cells treated with 50 nM AgRP, time course, against vehicle: 25 fold
B1: melanocortin receptor accessory protein 2 (MRAP2)-3xFLAG, murine (natural protein, mouse, UniProt D3Z1Q2 3-207, looked up)
chain: MSAQRLASNRTSPQSPSNSDYTWEYEYYEIGPVSFEGLKAHKYSIVIGFWVGLAVFVIFMFFVLTLLTKTGAPHQDNAESSERRFRMNSFVSDFGKPLESDKVFSRQGNEESRSLFHCYINEVEHLDRVKVCHQTTAIDSDVHLQEASRSSGRPEEELARFMKFDIPNFVNTEQSSFGEDDLLISEAPVLLENKPVSQTSRIDLD
